target: Fes (UniProt P07332); assay: phosphorylation enrichment, bacterial display (enrichment ratio); higher = better substrate or ligand; peptides without Tyr show the background
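Note: 11-residue human phosphosite peptides and single-mutation variants displayed on the E. coli surface, counted by deep sequencing, each peptide's frequency after selection divided by its frequency in the unselected input library; frequency after pTyr selection over input frequency; kinase dosed for 20-30% of maximal phosphorylation in three min.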

Fes, sequence (P07332 whole entry, looked up): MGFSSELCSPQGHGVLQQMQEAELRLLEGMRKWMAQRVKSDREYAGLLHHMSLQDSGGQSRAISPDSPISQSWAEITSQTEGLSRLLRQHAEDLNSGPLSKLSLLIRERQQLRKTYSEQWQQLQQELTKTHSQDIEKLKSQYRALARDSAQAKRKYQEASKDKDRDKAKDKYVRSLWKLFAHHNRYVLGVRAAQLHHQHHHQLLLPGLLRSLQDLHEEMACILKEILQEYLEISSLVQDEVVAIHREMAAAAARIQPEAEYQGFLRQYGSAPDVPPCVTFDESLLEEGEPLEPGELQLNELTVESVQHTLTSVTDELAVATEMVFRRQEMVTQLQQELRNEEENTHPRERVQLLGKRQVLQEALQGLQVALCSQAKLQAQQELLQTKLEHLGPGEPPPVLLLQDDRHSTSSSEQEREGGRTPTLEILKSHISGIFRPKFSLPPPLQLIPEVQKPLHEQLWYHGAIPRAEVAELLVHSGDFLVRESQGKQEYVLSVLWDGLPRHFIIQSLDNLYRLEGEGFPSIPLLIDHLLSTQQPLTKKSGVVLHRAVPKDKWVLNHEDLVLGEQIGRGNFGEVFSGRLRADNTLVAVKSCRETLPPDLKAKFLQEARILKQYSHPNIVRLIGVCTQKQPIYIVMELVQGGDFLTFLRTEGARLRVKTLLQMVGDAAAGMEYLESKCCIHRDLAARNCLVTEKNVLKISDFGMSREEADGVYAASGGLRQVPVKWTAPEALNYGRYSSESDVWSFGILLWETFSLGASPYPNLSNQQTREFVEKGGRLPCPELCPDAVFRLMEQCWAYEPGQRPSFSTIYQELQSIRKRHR

In order of falling phosphorylation enrichment:
1. TLSGIYQYIIA [FOXL2_Y81]  5.1
2. PGVNFYFRVSA  2.13
3. PQGVSYIFTID [DCX_Y103_R102S_YF]  1.74
4. GDEEDYYEIPG [EGFR_opt_no-pY_2015]  1.64
5. ITRDIYETDYY [INSR_Y1185_M1180I]  1.47
6. AEDEDYESVGA [SYKtide_2014]  1.44
7. DKWFLYKMRDI [CPS1_Y879]  1.36
8. SSDPDYLAAVD [GLB1_Y154]  1.27
9. EAEALYQTTFQ [KRT73_Y325_K328T]  1.27
10. SASWTYVRWFD [PTDSS1_Y274_P269S]  1.26
11. AVLVQYFMEHH [PTPN11_Y80_E76V_YF]  1.15
12. WFPFTYVEEDE [VAV3_Y842_S840Y_YF]  1.11
13. NESVDSRATFP [MET_Y1003_Y1003S]  1.1
14. TYACSYTPVKA [FLNB_Y708]  1.06
15. KSEMSCIDGEK [SORBS1_Y485_Y485C]  1.06
16. DYCDLYGGEKF [PTPN11_Y66_Y63C]  1.05
17. GESSGYLRLAF [MEP1A_Y481_R476G]  1.02
18. DGQFVYKLTDF [TBK1_Y153_S151F]  1.01
19. PLKALYLQQRL [ATM_Y2969_P2974L]  1.01
20. AVDVTYDGHPV [FLNB_Y1020]  0.982
21. KLNNEHLELNF [MME_Y497_Y497H_YF]  0.921
22. RSYSPYDYQPC [TNS1_Y796]  0.912
23. LCRFGYANTSE [SI_Y1233_YF]  0.893
24. SVMAEYGLYRA [VSX2_Y219_G223R]  0.862
25. FASAEYQEALS [GALNS_Y461]  0.858
26. EEQKKYSNAMK [SCN5A_Y1494_Y1495S]  0.723
27. EVQKNYEHLFK [PAM16_Y77]  0.715
28. SFIGQYSGKKE [L1CAM_Y1229]  0.714
29. GVLKEYGGKVL [CPS1_Y529_V531G]  0.686
30. MAHDRYAAICS [OR8H2_Y123]  0.646
31. IYRASYYRKGG [ALK_Y1282]  0.622
32. GGYTRYCDGKK [PROS1_Y266_C265R]  0.585
33. NPPGMHPVTGP [LPP_Y346_Y346H]  0.516

target: FGFR3 (UniProt P22607); assay: as above
Sequence (P22607 whole entry, looked up): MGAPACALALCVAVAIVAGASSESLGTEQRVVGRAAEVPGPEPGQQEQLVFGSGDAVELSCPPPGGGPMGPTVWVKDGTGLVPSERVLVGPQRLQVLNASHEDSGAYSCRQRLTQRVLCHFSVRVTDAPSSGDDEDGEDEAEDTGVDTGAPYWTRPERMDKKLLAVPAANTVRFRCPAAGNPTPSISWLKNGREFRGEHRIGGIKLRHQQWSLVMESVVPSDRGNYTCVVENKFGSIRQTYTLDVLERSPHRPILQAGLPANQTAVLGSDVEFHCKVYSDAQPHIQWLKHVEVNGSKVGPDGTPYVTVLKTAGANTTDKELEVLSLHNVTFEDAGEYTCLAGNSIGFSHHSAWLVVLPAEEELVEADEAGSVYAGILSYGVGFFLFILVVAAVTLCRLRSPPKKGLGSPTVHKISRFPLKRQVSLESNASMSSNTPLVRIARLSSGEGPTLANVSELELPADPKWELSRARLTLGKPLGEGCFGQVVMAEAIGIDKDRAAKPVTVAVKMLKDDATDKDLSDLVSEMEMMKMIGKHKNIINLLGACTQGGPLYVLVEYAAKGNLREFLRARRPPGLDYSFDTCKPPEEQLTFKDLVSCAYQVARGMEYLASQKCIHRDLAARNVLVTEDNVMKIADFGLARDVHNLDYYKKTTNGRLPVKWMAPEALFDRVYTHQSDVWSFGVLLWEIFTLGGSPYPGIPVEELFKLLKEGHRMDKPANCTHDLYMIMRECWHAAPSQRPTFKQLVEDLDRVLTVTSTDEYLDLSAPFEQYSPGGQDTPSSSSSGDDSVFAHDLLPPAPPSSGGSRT

In order of falling phosphorylation enrichment:
1. TLSGIYQYIIA [FOXL2_Y81]  8.01
2. GDEEDYYEIPG [EGFR_opt_no-pY_2015]  5.79
3. DYCDLYGGEKF [PTPN11_Y66_Y63C]  2.56
4. ITRDIYETDYY [INSR_Y1185_M1180I]  1.95
5. PGVNFYFRVSA  1.88
6. RSYSPYDYQPC [TNS1_Y796]  1.06
7. EAEALYQTTFQ [KRT73_Y325_K328T]  0.972
8. AEDEDYESVGA [SYKtide_2014]  0.937
9. PQGVSYIFTID [DCX_Y103_R102S_YF]  0.893
10. SSDPDYLAAVD [GLB1_Y154]  0.885
11. SASWTYVRWFD [PTDSS1_Y274_P269S]  0.854
12. AVLVQYFMEHH [PTPN11_Y80_E76V_YF]  0.813
13. DKWFLYKMRDI [CPS1_Y879]  0.77
14. GESSGYLRLAF [MEP1A_Y481_R476G]  0.696
15. PLKALYLQQRL [ATM_Y2969_P2974L]  0.692
16. WFPFTYVEEDE [VAV3_Y842_S840Y_YF]  0.692
17. KSEMSCIDGEK [SORBS1_Y485_Y485C]  0.686
18. KLNNEHLELNF [MME_Y497_Y497H_YF]  0.662
19. DGQFVYKLTDF [TBK1_Y153_S151F]  0.649
20. AVDVTYDGHPV [FLNB_Y1020]  0.63
21. TYACSYTPVKA [FLNB_Y708]  0.627
22. FASAEYQEALS [GALNS_Y461]  0.618
23. NESVDSRATFP [MET_Y1003_Y1003S]  0.583
24. LCRFGYANTSE [SI_Y1233_YF]  0.581
25. SVMAEYGLYRA [VSX2_Y219_G223R]  0.578
26. EEQKKYSNAMK [SCN5A_Y1494_Y1495S]  0.529
27. SFIGQYSGKKE [L1CAM_Y1229]  0.519
28. EVQKNYEHLFK [PAM16_Y77]  0.517
29. MAHDRYAAICS [OR8H2_Y123]  0.439
30. GGYTRYCDGKK [PROS1_Y266_C265R]  0.436
31. GVLKEYGGKVL [CPS1_Y529_V531G]  0.415
32. IYRASYYRKGG [ALK_Y1282]  0.403
33. NPPGMHPVTGP [LPP_Y346_Y346H]  0.331

target: MERTK (UniProt Q12866); assay: as above
Sequence (Q12866 whole entry, looked up): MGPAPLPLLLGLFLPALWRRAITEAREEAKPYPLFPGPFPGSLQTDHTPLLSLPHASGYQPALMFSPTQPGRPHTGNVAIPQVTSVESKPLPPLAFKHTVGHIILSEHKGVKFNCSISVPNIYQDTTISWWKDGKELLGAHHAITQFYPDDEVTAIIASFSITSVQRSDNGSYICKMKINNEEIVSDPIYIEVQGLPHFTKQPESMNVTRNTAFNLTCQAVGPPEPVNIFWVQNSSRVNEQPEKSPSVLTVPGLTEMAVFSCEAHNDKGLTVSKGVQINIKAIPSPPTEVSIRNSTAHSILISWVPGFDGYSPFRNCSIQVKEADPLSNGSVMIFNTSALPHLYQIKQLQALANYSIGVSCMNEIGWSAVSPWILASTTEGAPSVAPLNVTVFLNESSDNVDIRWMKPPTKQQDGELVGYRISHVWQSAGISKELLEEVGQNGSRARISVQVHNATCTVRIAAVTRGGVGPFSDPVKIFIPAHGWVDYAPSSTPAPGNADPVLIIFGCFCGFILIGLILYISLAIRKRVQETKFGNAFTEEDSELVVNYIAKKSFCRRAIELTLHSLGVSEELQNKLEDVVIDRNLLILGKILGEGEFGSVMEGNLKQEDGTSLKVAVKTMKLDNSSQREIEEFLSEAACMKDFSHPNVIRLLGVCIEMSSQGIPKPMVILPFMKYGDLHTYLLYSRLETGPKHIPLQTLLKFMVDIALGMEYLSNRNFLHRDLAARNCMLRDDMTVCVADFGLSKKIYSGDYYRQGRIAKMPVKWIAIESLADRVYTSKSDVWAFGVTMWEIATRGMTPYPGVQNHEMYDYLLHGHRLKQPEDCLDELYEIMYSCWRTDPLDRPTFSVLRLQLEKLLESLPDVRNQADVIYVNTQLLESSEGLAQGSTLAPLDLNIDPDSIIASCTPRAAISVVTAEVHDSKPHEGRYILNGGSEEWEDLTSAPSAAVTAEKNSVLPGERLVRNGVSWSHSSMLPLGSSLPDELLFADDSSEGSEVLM

In order of rising phosphorylation enrichment:
1. DKWFLYKMRDI [CPS1_Y879]  0.311
2. EVQKNYEHLFK [PAM16_Y77]  0.318
3. EEQKKYSNAMK [SCN5A_Y1494_Y1495S]  0.327
4. FASAEYQEALS [GALNS_Y461]  0.348
5. NPPGMHPVTGP [LPP_Y346_Y346H]  0.35
6. DGQFVYKLTDF [TBK1_Y153_S151F]  0.366
7. GVLKEYGGKVL [CPS1_Y529_V531G]  0.374
8. SFIGQYSGKKE [L1CAM_Y1229]  0.382
9. GGYTRYCDGKK [PROS1_Y266_C265R]  0.4
10. KLNNEHLELNF [MME_Y497_Y497H_YF]  0.405
11. KSEMSCIDGEK [SORBS1_Y485_Y485C]  0.406
12. LCRFGYANTSE [SI_Y1233_YF]  0.423
13. MAHDRYAAICS [OR8H2_Y123]  0.424
14. AVLVQYFMEHH [PTPN11_Y80_E76V_YF]  0.429
15. AVDVTYDGHPV [FLNB_Y1020]  0.429
16. SASWTYVRWFD [PTDSS1_Y274_P269S]  0.445
17. WFPFTYVEEDE [VAV3_Y842_S840Y_YF]  0.453
18. GESSGYLRLAF [MEP1A_Y481_R476G]  0.464
19. DYCDLYGGEKF [PTPN11_Y66_Y63C]  0.477
20. SSDPDYLAAVD [GLB1_Y154]  0.487
21. AEDEDYESVGA [SYKtide_2014]  0.49
22. PLKALYLQQRL [ATM_Y2969_P2974L]  0.523
23. NESVDSRATFP [MET_Y1003_Y1003S]  0.531
24. SVMAEYGLYRA [VSX2_Y219_G223R]  0.552
25. PQGVSYIFTID [DCX_Y103_R102S_YF]  0.591
26. IYRASYYRKGG [ALK_Y1282]  0.621
27. PGVNFYFRVSA  0.743
28. GDEEDYYEIPG [EGFR_opt_no-pY_2015]  0.811
29. ITRDIYETDYY [INSR_Y1185_M1180I]  0.828
30. TYACSYTPVKA [FLNB_Y708]  3.02
31. RSYSPYDYQPC [TNS1_Y796]  3.28
32. EAEALYQTTFQ [KRT73_Y325_K328T]  4.9
33. TLSGIYQYIIA [FOXL2_Y81]  9.32

target: FGFR1 (UniProt P11362); assay: as above
Sequence (P11362 whole entry, looked up): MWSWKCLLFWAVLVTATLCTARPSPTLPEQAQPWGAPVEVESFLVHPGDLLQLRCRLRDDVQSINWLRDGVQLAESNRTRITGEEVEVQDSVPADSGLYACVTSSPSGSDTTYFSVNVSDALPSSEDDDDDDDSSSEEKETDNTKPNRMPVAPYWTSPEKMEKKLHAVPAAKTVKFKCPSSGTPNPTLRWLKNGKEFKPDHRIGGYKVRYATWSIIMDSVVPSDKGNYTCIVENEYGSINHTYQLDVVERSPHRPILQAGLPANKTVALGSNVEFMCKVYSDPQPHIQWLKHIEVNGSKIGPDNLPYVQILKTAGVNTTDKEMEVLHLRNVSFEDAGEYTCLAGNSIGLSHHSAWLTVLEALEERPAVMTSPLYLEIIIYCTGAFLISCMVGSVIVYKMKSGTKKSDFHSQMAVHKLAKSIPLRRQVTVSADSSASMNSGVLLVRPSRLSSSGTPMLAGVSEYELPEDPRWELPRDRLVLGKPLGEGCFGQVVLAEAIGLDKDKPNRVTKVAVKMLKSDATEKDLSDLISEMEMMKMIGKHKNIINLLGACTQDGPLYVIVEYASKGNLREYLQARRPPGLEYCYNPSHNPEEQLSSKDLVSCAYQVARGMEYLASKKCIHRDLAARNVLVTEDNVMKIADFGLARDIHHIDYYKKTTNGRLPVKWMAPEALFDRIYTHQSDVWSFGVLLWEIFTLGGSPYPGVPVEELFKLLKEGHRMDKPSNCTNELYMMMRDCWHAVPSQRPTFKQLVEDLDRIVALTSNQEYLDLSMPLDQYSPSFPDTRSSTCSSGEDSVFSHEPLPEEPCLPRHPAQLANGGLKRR

In order of falling phosphorylation enrichment:
1. TLSGIYQYIIA [FOXL2_Y81]  11.1
2. GDEEDYYEIPG [EGFR_opt_no-pY_2015]  6.05
3. DYCDLYGGEKF [PTPN11_Y66_Y63C]  3.45
4. ITRDIYETDYY [INSR_Y1185_M1180I]  2.03
5. RSYSPYDYQPC [TNS1_Y796]  1.27
6. PGVNFYFRVSA  1.14
7. TYACSYTPVKA [FLNB_Y708]  0.877
8. SASWTYVRWFD [PTDSS1_Y274_P269S]  0.677
9. EAEALYQTTFQ [KRT73_Y325_K328T]  0.644
10. AEDEDYESVGA [SYKtide_2014]  0.62
11. SSDPDYLAAVD [GLB1_Y154]  0.56
12. GESSGYLRLAF [MEP1A_Y481_R476G]  0.559
13. SVMAEYGLYRA [VSX2_Y219_G223R]  0.537
14. KSEMSCIDGEK [SORBS1_Y485_Y485C]  0.522
15. WFPFTYVEEDE [VAV3_Y842_S840Y_YF]  0.52
16. DGQFVYKLTDF [TBK1_Y153_S151F]  0.498
17. AVDVTYDGHPV [FLNB_Y1020]  0.497
18. MAHDRYAAICS [OR8H2_Y123]  0.494
19. NESVDSRATFP [MET_Y1003_Y1003S]  0.485
20. FASAEYQEALS [GALNS_Y461]  0.482
21. DKWFLYKMRDI [CPS1_Y879]  0.466
22. AVLVQYFMEHH [PTPN11_Y80_E76V_YF]  0.466
23. KLNNEHLELNF [MME_Y497_Y497H_YF]  0.462
24. EEQKKYSNAMK [SCN5A_Y1494_Y1495S]  0.456
25. PQGVSYIFTID [DCX_Y103_R102S_YF]  0.456
26. LCRFGYANTSE [SI_Y1233_YF]  0.455
27. PLKALYLQQRL [ATM_Y2969_P2974L]  0.429
28. SFIGQYSGKKE [L1CAM_Y1229]  0.417
29. IYRASYYRKGG [ALK_Y1282]  0.414
30. EVQKNYEHLFK [PAM16_Y77]  0.4
31. GGYTRYCDGKK [PROS1_Y266_C265R]  0.37
32. NPPGMHPVTGP [LPP_Y346_Y346H]  0.361
33. GVLKEYGGKVL [CPS1_Y529_V531G]  0.361
